Experimental findings from US20220226463A1 (NATIONAL CHENG KUNG UNIVERSITY, published 2022) are described below.

The target of this assay is T1, TRAF6 (UniProt Q9Y4K3 1-522).
T1 sequence: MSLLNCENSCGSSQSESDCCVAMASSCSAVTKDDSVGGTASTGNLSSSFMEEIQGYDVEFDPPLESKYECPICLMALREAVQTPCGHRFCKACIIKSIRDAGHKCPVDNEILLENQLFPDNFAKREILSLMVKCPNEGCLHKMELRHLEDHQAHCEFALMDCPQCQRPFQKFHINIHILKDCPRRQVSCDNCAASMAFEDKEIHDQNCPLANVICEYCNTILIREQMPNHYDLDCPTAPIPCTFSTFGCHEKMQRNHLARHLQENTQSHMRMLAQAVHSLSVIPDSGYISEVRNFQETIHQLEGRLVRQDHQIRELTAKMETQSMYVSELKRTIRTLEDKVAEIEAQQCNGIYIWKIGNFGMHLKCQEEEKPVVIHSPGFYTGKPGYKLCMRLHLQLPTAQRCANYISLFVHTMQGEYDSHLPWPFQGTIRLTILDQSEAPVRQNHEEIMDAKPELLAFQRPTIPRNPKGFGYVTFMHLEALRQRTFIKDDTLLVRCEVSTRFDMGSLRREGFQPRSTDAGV
Description: co-immunoprecipitation and western blot, HEK293T cells (FIG. 3A). (In general: Immunoblotting shows a protein as a band on a membrane.)

B1: wild-type NS1 (NS1-Myc/His), nonstructural protein 1 of influenza virus strain A/PR/8 (PR8), C-terminal Myc-His tag (other)
chain: MDPNTVSSFQVDCFLWHVRKRVADQELGDAPFLDRLRRDQKSLRGRGSTLGLDIETATRAGKQIVERILKEESDEALKMTMASVPASRYLTDMTLEEMSRDWSMLIPKQKVAGPLCIRMDQAIMDKNIILKANFSVIFDRLETLILLRAFTEEGAIVGEISPLPSLPGHTAEDVKNAVGVLIGGLEWNDNTVRVSETLQRFAWRSSNENGRPPLTPKQKREMAGTIRSEV
Turning to B1, the binding result was “no binding”.
